The source of these data is the Human Domainome abundance scans (Beltran et al. 2025).

B1: 1-phosphatidylinositol 4,5-bisphosphate phosphodiesterase gamma-2, residues 772 to 827; numbered along this chain, P16885 (parent)
chain: RTVKALYDYKAKRSDELSFCRGALIHNVSKEPGGWWKGDYGTRIQQYFPSNYVEDI

± gives the uncertainty stated by the source.

The data set covers variants of B1. Kind of data set: abundance fitness (aPCA) (normalised: wild type 0, dead -1); higher = more abundant; growth selection in yeast, the domain comes from the species named. As to conditions: Homo sapiens.
Consider RTVKALYDYKAKRSDELSFCRGALIHNVSKEPGGWWKGDYGTTIQQYFPSNYVEDI [R43T], for which the abundance fitness was -0.269 ± 0.068.

Consider RTVKALYDYKAKRSDELSFCRGALIHNVSKEPGGWWKGDYGTDIQQYFPSNYVEDI [R43D], for which the abundance fitness was -0.243 ± 0.15. For RTVKALYDYKAKRSDELSFCRGALIHNVSKEPGGWWKGDYGTYIQQYFPSNYVEDI [R43Y], the abundance fitness is -0.228 ± 0.25.

In the case of RTVKALYDYKAKRSDELSFCRGALIHNVSKEPGGWWKGDYGTVIQQYFPSNYVEDI [R43V], the abundance fitness is -0.349 ± 0.08. The figure for RTVKALYDYKAKRSDELSFCRGALIHNVSKEPGGWWKGDYGTSIQQYFPSNYVEDI [R43S] is -0.199 ± 0.08. The value for RTVKALYDYKAKRSDELSFCRGALIHNVSKEPGGWWKGDYGTQIQQYFPSNYVEDI [R43Q] was -0.039 ± 0.12; that for RTVKALYDYKAKRSDELSFCRGALIHNVSKEPGGWWKGDYGTHIQQYFPSNYVEDI [R43H] was 0.022 ± 0.092; that for RTVKALYDYKAKRSDELSFCRGALIHNVSKEPGGWWKGDYGTFIQQYFPSNYVEDI [R43F] was -0.359 ± 0.17.

In the case of RTVKALYDYKAKRSDELSFCRGALIHNVSKEPGGWWKGDYGTRIPQYFPSNYVEDI [Q45P], the abundance fitness was -0.699 ± 0.28. The value for RTVKALYDYKAKRSDELSFCRGALIHNVSKEPGGWWKGDYGTRIVQYFPSNYVEDI [Q45V] was -0.942 ± 0.17. The figure for RTVKALYDYKAKRSDELSFCRGALIHNVSKEPGGWWKGDYGTRITQYFPSNYVEDI [Q45T] is -0.651 ± 0.24; for RTVKALYDYKAKRSDELSFCRGALIHNVSKEPGGWWKGDYGTRIKQYFPSNYVEDI [Q45K] it is -0.51 ± 0.16; for RTVKALYDYKAKRSDELSFCRGALIHNVSKEPGGWWKGDYGTRIAQYFPSNYVEDI [Q45A] it is -0.335 ± 0.091. The figure for RTVKALYDYKAKRSDELSFCRGALIHNVSKEPGGWWKGDYGTRIEQYFPSNYVEDI [Q45E] is -0.819 ± 0.29; for RTVKALYDYKAKRSDELSFCRGALIHNVSKEPGGWWKGDYGTRIYQYFPSNYVEDI [Q45Y] it is -0.732 ± 0.28; for RTVKALYDYKAKRSDELSFCRGALIHNVSKEPGGWWKGDYGTRISQYFPSNYVEDI [Q45S] it is -0.472 ± 0.093.

As to RTVKALYDYKAKRSDELSFCRGALIHNVSKEPGGWWKGDYGTRIWQYFPSNYVEDI [Q45W], the abundance fitness was -0.916 ± 0.45.

Turning to RTVKALYDYKAKRSDELSFCRGALIHNVSKEPGGWWKGDYGTRIGQYFPSNYVEDI [Q45G], the abundance fitness was -0.278 ± 0.081. The figure for RTVKALYDYKAKRSDELSFCRGALIHNVSKEPGGWWKGDYGTRIIQYFPSNYVEDI [Q45I] is -0.658 ± 0.28; for RTVKALYDYKAKRSDELSFCRGALIHNVSKEPGGWWKGDYGTRIHQYFPSNYVEDI [Q45H] it is -0.458 ± 0.1; for RTVKALYDYKAKRSDELSFCRGALIHNVSKEPGGWWKGDYGTRIRQYFPSNYVEDI [Q45R] it is -0.92 ± 0.14. As for RTVKALYDYKAKRSDELSFCRGALIHNVSKEPGGWWKGDYGTRICQYFPSNYVEDI [Q45C], the abundance fitness was -0.33 ± 0.13. The figure for RTVKALYDYKAKRSDELSFCRGALIHNVSKEPGGWWKGDYGTRINQYFPSNYVEDI [Q45N] is -0.273 ± 0.11; for RTVKALYDYKAKRSDELSFCRGALIHNVSKEPGGWWKGDYGTRILQYFPSNYVEDI [Q45L] it is -0.923 ± 0.25; for RTVKALYDYKAKRSDELSFCRGALIHNVSKEPGGWWKGDYGTRIDQYFPSNYVEDI [Q45D] it is -0.753 ± 0.23. The figure for RTVKALYDYKAKRSDELSFCRGALIHNVSKEPGGWWKGDYGTRWQQYFPSNYVEDI [I44W] is -0.384 ± 0.081; for RTVKALYDYKAKRSDELSFCRGALIHNVSKEPGGWWKGDYGTRDQQYFPSNYVEDI [I44D] it is -0.64 ± 0.34. The value for RTVKALYDYKAKRSDELSFCRGALIHNVSKEPGGWWKGDYGTRLQQYFPSNYVEDI [I44L] was -0.111 ± 0.076; that for RTVKALYDYKAKRSDELSFCRGALIHNVSKEPGGWWKGDYGTRSQQYFPSNYVEDI [I44S] was -0.454 ± 0.12; that for RTVKALYDYKAKRSDELSFCRGALIHNVSKEPGGWWKGDYGTRYQQYFPSNYVEDI [I44Y] was -0.116 ± 0.1. Take RTVKALYDYKAKRSDELSFCRGALIHNVSKEPGGWWKGDYGTRCQQYFPSNYVEDI [I44C]: the abundance fitness was -0.074 ± 0.069. The figure for RTVKALYDYKAKRSDELSFCRGALIHNVSKEPGGWWKGDYGTRKQQYFPSNYVEDI [I44K] is -0.008 ± 0.14. The figure for RTVKALYDYKAKRSDELSFCRGALIHNVSKEPGGWWKGDYGTRAQQYFPSNYVEDI [I44A] is -0.196 ± 0.05; for RTVKALYDYKAKRSDELSFCRGALIHNVSKEPGGWWKGDYGTRFQQYFPSNYVEDI [I44F] it is -0.237 ± 0.16; for RTVKALYDYKAKRSDELSFCRGALIHNVSKEPGGWWKGDYGTRTQQYFPSNYVEDI [I44T] it is 0.191 ± 0.08.

As for RTVKALYDYKAKRSDELSFCRGALIHNVSKEPGGWWKGDYGTRGQQYFPSNYVEDI [I44G], the abundance fitness was -0.811 ± 0.11.

For the variant RTVKALYDYKAKRSDELSFCRGALIHNVSKEPGGWWKGDYGTRVQQYFPSNYVEDI [I44V], the abundance fitness came out at 0.043 ± 0.064. The figure for RTVKALYDYKAKRSDELSFCRGALIHNVSKEPGGWWKGDYGTRPQQYFPSNYVEDI [I44P] is -0.845 ± 0.47; for RTVKALYDYKAKRSDELSFCRGALIHNVSKEPGGWWKGDYGTRMQQYFPSNYVEDI [I44M] it is 0.019 ± 0.064. The value for RTVKALYDYKAKRSDELSFCRGALIHNVSKEPGGWWKGDYGTRQQQYFPSNYVEDI [I44Q] was -0.246 ± 0.12; that for RTVKALYDYKAKRSDELSFCRGALIHNVSKEPGGWWKGDYGTRNQQYFPSNYVEDI [I44N] was -0.224 ± 0.15; that for RTVKALYDYKAKRSDELSFCRGALIHNVSKEPGGWWKGDYGTRHQQYFPSNYVEDI [I44H] was 0.026 ± 0.084. The figure for RTVKALYDYKAKRSDELSFCRGALIHNVSKEPGGWWKGDYGTREQQYFPSNYVEDI [I44E] is -0.133 ± 0.091.

Turning to RTVKALYDYKAKRSDELSFCRGALIHNVSKEPGGWWKGDYVTRIQQYFPSNYVEDI [G41V], the abundance fitness is -0.889 ± 0.078. The figure for RTVKALYDYKAKRSDELSFCRGALIHNVSKEPGGWWKGDYYTRIQQYFPSNYVEDI [G41Y] is -0.557 ± 0.35; for RTVKALYDYKAKRSDELSFCRGALIHNVSKEPGGWWKGDYTTRIQQYFPSNYVEDI [G41T] it is -0.699 ± 0.17. The figure for RTVKALYDYKAKRSDELSFCRGALIHNVSKEPGGWWKGDYSTRIQQYFPSNYVEDI [G41S] is -0.627 ± 0.14.
